Article doi:10.1101/2020.12.10.418392

Target: T1, RLP42-GFP (A. thaliana) (UniProt Q9LJS0)
T1 sequence: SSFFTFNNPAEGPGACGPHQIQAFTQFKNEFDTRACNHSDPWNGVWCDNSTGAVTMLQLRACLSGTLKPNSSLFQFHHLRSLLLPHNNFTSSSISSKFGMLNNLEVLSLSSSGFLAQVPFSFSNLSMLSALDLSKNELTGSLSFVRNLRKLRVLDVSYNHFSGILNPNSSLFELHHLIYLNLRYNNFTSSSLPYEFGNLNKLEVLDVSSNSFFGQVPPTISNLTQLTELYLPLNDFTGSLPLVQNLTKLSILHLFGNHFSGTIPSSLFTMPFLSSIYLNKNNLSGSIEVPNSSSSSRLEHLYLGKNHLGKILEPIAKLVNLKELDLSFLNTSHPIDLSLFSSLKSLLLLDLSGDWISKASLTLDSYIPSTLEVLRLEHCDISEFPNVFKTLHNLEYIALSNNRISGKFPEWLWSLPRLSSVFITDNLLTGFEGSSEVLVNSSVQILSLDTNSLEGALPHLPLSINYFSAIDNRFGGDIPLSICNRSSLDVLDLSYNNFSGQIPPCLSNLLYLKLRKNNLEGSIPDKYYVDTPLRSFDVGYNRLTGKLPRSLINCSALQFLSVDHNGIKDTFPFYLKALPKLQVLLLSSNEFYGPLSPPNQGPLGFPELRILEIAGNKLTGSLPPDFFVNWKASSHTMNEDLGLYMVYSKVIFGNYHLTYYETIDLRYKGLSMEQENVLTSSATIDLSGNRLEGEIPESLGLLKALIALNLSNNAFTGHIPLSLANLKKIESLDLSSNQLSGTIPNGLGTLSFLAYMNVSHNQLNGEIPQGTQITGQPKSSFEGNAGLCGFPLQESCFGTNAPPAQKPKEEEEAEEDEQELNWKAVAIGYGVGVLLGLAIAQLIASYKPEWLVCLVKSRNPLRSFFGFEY

B1: Oom-pg9 (peptide)
peptide: AKNTDGFDL
EC50 of ethylene production in A. thaliana Col-0 leaves: 1300 nM
